In patent US20140087995A1 (published 2014):
Blank lines part the entries; values can stand above or below the binder they belong to. Numbered stars: 1 amine (or outer) side, 2 acyl side, 3 side chain; on linkers, the order of the positions; unused ones are H or OH. Bridge positions count the residues as written; N and C are the ends. Side chains are listed from the residue outwards. Ends that are not written are not given here. * marks the point of attachment. C20 diacid = O=C(O)CCCCCCCCCCCCCCCCCCC(=O)*; γGlu = O=C(O)[C@H](CCC(=O)[*:2])N[*:1]; AEEA = NCCOCCOCC(=O)O

How the values were obtained:
[1] = target: T1, human calcitonin receptor (human, UniProt P30988 25-474); assay: IC50 at hCTR divided by IC50 at hAmylin-R (reference)
T1 construct: whole, on cells; Membranes of a BHK tk'ts 13 cell line stably transfected with the human calcitonin receptor; also called hCTR; hCT
T1 sequence (looked up): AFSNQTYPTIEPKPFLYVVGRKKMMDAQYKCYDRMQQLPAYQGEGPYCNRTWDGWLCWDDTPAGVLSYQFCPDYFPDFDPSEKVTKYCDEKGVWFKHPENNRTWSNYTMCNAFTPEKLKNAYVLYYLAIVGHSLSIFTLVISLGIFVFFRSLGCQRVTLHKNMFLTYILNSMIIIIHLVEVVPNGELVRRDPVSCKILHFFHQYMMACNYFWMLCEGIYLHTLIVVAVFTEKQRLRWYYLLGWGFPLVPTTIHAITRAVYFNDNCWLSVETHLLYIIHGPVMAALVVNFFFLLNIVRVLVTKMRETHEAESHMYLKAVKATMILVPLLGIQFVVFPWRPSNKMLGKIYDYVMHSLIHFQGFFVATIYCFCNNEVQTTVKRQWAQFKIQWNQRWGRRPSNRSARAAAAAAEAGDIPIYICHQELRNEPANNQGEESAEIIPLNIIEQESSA
Procedure: The resulting pellet was resuspended, homogenized and centrifuged (20.000 rpm, 15 min) in a buffer containing 20 mM Na-HEPES and 0.1 mM EDTA (pH 7.4, buffer 2). The resulting pellet was resuspended in buffer 2 and protein concentration was measured (BCA protein Assay, Pierce). The homogenate was kept cold during the whole procedure. The membranes were kept at −80° C. until use. The assay was performed in a 384 well Optiplate (PerkinElmer) in a total volume of 40 ul. Membranes were mixed with SPA beads. Final concentration of membranes 35 ng/μL final and SPA beads was 0.05 mg/well. Test-compounds were dissolved in DMSO and further diluted in assay buffer (50 mM Hepes, pH 7.4, 1 mM CaCl2, 5 mM MgCl₂, 0.1% OA and 0.02% Tween20). […] The final mixture was incubated with shaking at 400 rpm for 120 min at 25° C. prior to centrifugation (1500 rpm, 10 min). Samples were analyzed on TopCounter™ (Packard). The IC₅₀ was calculated using (one site binding competition analysis) GraphPad Prism5 as a measure of receptor affinity.
Membranes were prepared in the following way; the cells were rinsed with PBS and incubated with Versene for approximately 5 min before harvesting. The cells were flushed with PBS and the cell-suspension was centrifuged for 5 min at 1000 rpm. Cells were homogenized (Ultrathurrax) in a buffer containing 20 mM Na-HEPES and 10 mM EDTA (pH 7.4) and centrifuged at 20.000 rpm for 15 min. The resulting pellet was resuspended, homogenized and centrifuged (20.000 rpm, 15 min) in a buffer containing 20 mM Na-HEPES and 0.1 mM EDTA (pH 7.4, buffer 2). The resulting pellet was resuspended in buffer 2 and protein concentration was measured (BCA protein Assay, Pierce). The homogenate was kept cold during the whole procedure. The membranes were kept at −80° C. until use. Assay was performed in a 384 well Optiplate (PerkinElmer) in a total volume of 40 ul. Membranes were mixed with SPA beads.

rat calcitonin receptor = target: T2, rat calcitonin receptor (rat, UniProt P32214 25-516); assay: SPA competition vs 125I-calcitonin, membranes with rat CTR (Assay VIII)
T2 construct: whole, on cells; Membranes of BHK tk'ts 13 cells transiently transfected with the rat calcitonin receptor; also called rCTR; rat calcitonin (a) receptor
T2 sequence (looked up): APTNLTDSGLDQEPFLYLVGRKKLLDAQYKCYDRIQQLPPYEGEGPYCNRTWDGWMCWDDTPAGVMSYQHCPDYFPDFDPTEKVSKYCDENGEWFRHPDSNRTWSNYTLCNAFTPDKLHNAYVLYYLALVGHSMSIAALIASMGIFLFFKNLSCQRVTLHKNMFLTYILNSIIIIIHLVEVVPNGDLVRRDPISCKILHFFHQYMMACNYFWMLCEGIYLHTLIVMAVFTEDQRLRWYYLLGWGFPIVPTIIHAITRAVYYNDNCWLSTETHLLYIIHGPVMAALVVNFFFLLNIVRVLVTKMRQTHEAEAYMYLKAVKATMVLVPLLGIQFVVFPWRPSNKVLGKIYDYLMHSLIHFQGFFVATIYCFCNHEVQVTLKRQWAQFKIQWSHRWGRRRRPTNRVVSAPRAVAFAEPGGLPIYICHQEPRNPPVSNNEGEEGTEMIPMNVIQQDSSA

[2] = target: T3, rat amylin receptor (rat calcitonin receptor + rat RAMP 3) (rat, UniProt P32214 25-516; Q9JJ73 23-147); assay: SPA competition vs 125I-rat amylin, membranes with rat CTR + rat RAMP3 (Assay VI)
T3 construct: whole, on cells; Membranes of BHK tk'ts 13 cells transiently transfected with the rat calcitonin receptor and rat RAMP 3; also called rAmylin-R; rat amylin 3(a) receptor
T3 sequence (looked up) 1: T2 sequence (looked up)
T3 sequence (looked up) 2: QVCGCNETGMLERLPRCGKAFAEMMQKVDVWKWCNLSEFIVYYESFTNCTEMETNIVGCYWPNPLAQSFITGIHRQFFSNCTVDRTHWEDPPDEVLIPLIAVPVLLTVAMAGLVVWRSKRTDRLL
Procedure: The binding assay was performed using scintillation proximity assay (SPA) beads (RPNQ0001) from PerkinElmer and cell membranes from the Amylin 3(a)/CRE-luc cells (as described in Assay (II)) were used. Membranes were prepared in the following way; the cells were rinsed with PBS and incubated with Versene for approximately 5 min before harvesting. The cells were flushed with PBS and the cell-suspension was centrifuged for 5 min at 1000 rpm. Cells were homogenized (ultrathurrax) in a buffer containing 20 mM Na-HEPES and 10 mM EDTA (pH 7.4) and centrifuged at 20.000 rpm for 15 min. The resulting pellet was resuspended, homogenized and centrifuged (20.000 rpm, 15 min) in a buffer containing 20 mM Na-HEPES and 0.1 mM EDTA (pH 7.4, buffer 2). The resulting pellet was resuspended in buffer 2 and protein concentration was measured (BCA protein Assay, Pierce). The homogenate was kept cold during the whole procedure. The membranes were kept at −80° C. until use. The assay was performed in a 384 well Optiplate (PerkinElmer) in a total volume of 40 ul. Membranes were mixed with SPA beads. Final concentration of membranes 35 ng/μL final and SPA beads was 0.05 mg/well. Test-compounds were dissolved in DMSO and further diluted in assay buffer (50 mM Hepes, pH 7.4, 1 mM CaCl2, 5 mM MgCl₂, 0.1% OA and 0.02% Tween20). […] The final mixture was incubated with shaking at 400 rpm for 120 min at 25° C. prior to centrifugation (1500 rpm, 10 min). Samples were analyzed on TopCounter™ (Packard). The IC₅₀ was calculated using (one site binding competition analysis) GraphPad Prism5 as a measure of receptor affinity.
Cells were grown in DMEM with 10% FBS and 1% Pen/Strep. Approximately 48 hours after transfection, the cells were harvested and membranes were prepared.

[3] = target: T4, human calcitonin receptor (human, UniProt P30988 25-474); assay: cell-based or functional assay
T4 sequence (looked up): T1 sequence (looked up)

[4] = target: T5, human amylin receptor (amylin 3(a) receptor: human calcitonin receptor plus RAMP-3) (human, UniProt P30988 25-474; O60896 24-148, limits assumed); assay: cell-based or functional assay
T5 sequence (looked up) 1: T1 sequence (looked up)
T5 sequence (looked up) 2: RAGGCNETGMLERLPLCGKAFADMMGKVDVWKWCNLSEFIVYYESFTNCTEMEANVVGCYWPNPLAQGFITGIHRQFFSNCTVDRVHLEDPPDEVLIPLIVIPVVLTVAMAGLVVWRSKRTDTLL

- Ratio hCT/hAmylin binding [1]: 26
B1: N^α1 N^α1-[(4S)-4-carboxy-4-[[(4S)-4-carboxy-4-(19-carboxynonadecanoylamino)butanoyl]amino]butanoyl]-[Glu14,Arg17,Pro21,Pro27]-h-amylin (peptide)
peptide: {C20 diacid-γGlu-γGlu}-KCNTATCATQRLAEFLRHSSPNFGAIPSSTNVGSNTY-NH2
modifications: disulfide 2-7
SMILES: CC[C@H](C)[C@H](NC(=O)[C@H](C)NC(=O)CNC(=O)[C@H](Cc1ccccc1)NC(=O)[C@H](CC(N)=O)NC(=O)[C@@H]1CCCN1C(=O)[C@H](CO)NC(=O)[C@H](CO)NC(=O)[C@H](Cc1c[nH]cn1)NC(=O)[C@H](CCCNC(=N)N)NC(=O)[C@H](CC(C)C)NC(=O)[C@H](Cc1ccccc1)NC(=O)[C@H](CCC(=O)O)NC(=O)[C@H](C)NC(=O)[C@H](CC(C)C)NC(=O)[C@H](CCCNC(=N)N)NC(=O)[C@H](CCC(N)=O)NC(=O)[C@@H](NC(=O)[C@H](C)NC(=O)[C@@H]1CSSC[C@H](NC(=O)[C@H](CCCCN)NC(=O)CC[C@H](NC(=O)CC[C@H](NC(=O)CCCCCCCCCCCCCCCCCCC(=O)O)C(=O)O)C(=O)O)C(=O)N[C@@H](CC(N)=O)C(=O)N[C@@H]([C@@H](C)O)C(=O)N[C@@H](C)C(=O)N[C@@H]([C@@H](C)O)C(=O)N1)[C@@H](C)O)C(=O)N1CCC[C@H]1C(=O)N[C@@H](CO)C(=O)N[C@@H](CO)C(=O)N[C@H](C(=O)N[C@@H](CC(N)=O)C(=O)N[C@H](C(=O)NCC(=O)N[C@@H](CO)C(=O)N[C@@H](CC(N)=O)C(=O)N[C@H](C(=O)N[C@@H](Cc1ccc(O)cc1)C(N)=O)[C@@H](C)O)C(C)C)[C@@H](C)O
notes: modifications are with respect to human amylin; also called compound 15

- IC50 (rat calcitonin receptor): 38 nM
- IC50 [2]: 0.383 nM
B2: N^ε1-[2-[2-[2-[[(4S)-4-carboxy-4-(19-carboxynonadecanoylamino)butanoyl]amino]ethoxy]ethoxy]acetyl]-[Arg17,Pro21,Pro27,Arg35]-h-amylin (peptide)
peptide: K([AEEA-γGlu-C20 diacid])CNTATCATQRLANFLRHSSPNFGAIPSSTNVGSRTY-NH2
modifications: disulfide 2-7; N-terminus assumed
SMILES: CC[C@H](C)[C@H](NC(=O)[C@H](C)NC(=O)CNC(=O)[C@H](Cc1ccccc1)NC(=O)[C@H](CC(N)=O)NC(=O)[C@@H]1CCCN1C(=O)[C@H](CO)NC(=O)[C@H](CO)NC(=O)[C@H](Cc1c[nH]cn1)NC(=O)[C@H](CCCNC(=N)N)NC(=O)[C@H](CC(C)C)NC(=O)[C@H](Cc1ccccc1)NC(=O)[C@H](CC(N)=O)NC(=O)[C@H](C)NC(=O)[C@H](CC(C)C)NC(=O)[C@H](CCCNC(=N)N)NC(=O)[C@H](CCC(N)=O)NC(=O)[C@@H](NC(=O)[C@H](C)NC(=O)[C@@H]1CSSC[C@H](NC(=O)[C@@H](N)CCCCNC(=O)COCCOCCNC(=O)CC[C@H](NC(=O)CCCCCCCCCCCCCCCCCCC(=O)O)C(=O)O)C(=O)N[C@@H](CC(N)=O)C(=O)N[C@@H]([C@@H](C)O)C(=O)N[C@@H](C)C(=O)N[C@@H]([C@@H](C)O)C(=O)N1)[C@@H](C)O)C(=O)N1CCC[C@H]1C(=O)N[C@@H](CO)C(=O)N[C@@H](CO)C(=O)N[C@H](C(=O)N[C@@H](CC(N)=O)C(=O)N[C@H](C(=O)NCC(=O)N[C@@H](CO)C(=O)N[C@@H](CCCNC(=N)N)C(=O)N[C@H](C(=O)N[C@@H](Cc1ccc(O)cc1)C(N)=O)[C@@H](C)O)C(C)C)[C@@H](C)O
notes: modifications are with respect to human amylin; also called compound 38

- Ratio hCT/hAmylin funct. (hCTR EC50 against hAmylin-R EC50) [3]: 17
- hCTR funct. EC50 [3]: 10.1 nM
- hAmylin-R funct. EC50 [4]: 0.594 nM
B3: N^ε-[2-[2-[2-[[(4S)-4-carboxy-4-(19-carboxynonadecanoylamino)butanoyl]amino]ethoxy]ethoxy]acetyl]Lys[Arg1,Arg17,Pro21,Pro27,His35]-h-amylin (peptide)
peptide: K([AEEA-γGlu-C20 diacid])RCNTATCATQRLANFLRHSSPNFGAIPSSTNVGSHTY-NH2
modifications: disulfide 3-8; N-terminus assumed
SMILES: CC[C@H](C)[C@H](NC(=O)[C@H](C)NC(=O)CNC(=O)[C@H](Cc1ccccc1)NC(=O)[C@H](CC(N)=O)NC(=O)[C@@H]1CCCN1C(=O)[C@H](CO)NC(=O)[C@H](CO)NC(=O)[C@H](Cc1c[nH]cn1)NC(=O)[C@H](CCCNC(=N)N)NC(=O)[C@H](CC(C)C)NC(=O)[C@H](Cc1ccccc1)NC(=O)[C@H](CC(N)=O)NC(=O)[C@H](C)NC(=O)[C@H](CC(C)C)NC(=O)[C@H](CCCNC(=N)N)NC(=O)[C@H](CCC(N)=O)NC(=O)[C@@H](NC(=O)[C@H](C)NC(=O)[C@@H]1CSSC[C@H](NC(=O)[C@H](CCCNC(=N)N)NC(=O)[C@@H](N)CCCCNC(=O)COCCOCCNC(=O)CC[C@H](NC(=O)CCCCCCCCCCCCCCCCCCC(=O)O)C(=O)O)C(=O)N[C@@H](CC(N)=O)C(=O)N[C@@H]([C@@H](C)O)C(=O)N[C@@H](C)C(=O)N[C@@H]([C@@H](C)O)C(=O)N1)[C@@H](C)O)C(=O)N1CCC[C@H]1C(=O)N[C@@H](CO)C(=O)N[C@@H](CO)C(=O)N[C@H](C(=O)N[C@@H](CC(N)=O)C(=O)N[C@H](C(=O)NCC(=O)N[C@@H](CO)C(=O)N[C@@H](Cc1c[nH]cn1)C(=O)N[C@H](C(=O)N[C@@H](Cc1ccc(O)cc1)C(N)=O)[C@@H](C)O)C(C)C)[C@@H](C)O
notes: also called compound 45
